The values that follow come from patent CN109957013A.

The target in assay [1] is H7N9病毒的血凝素HA (H7N9病毒). As to the kind of experiment: ELISA, positive control well.
In assay [2] the target is H7N9病毒的血凝素HA (H7N9病毒). As to the kind of experiment: ELISA of 293F supernatant with recombinant 7O2. (In general: An ELISA detects its analyte on a solid surface through an enzyme-linked reagent.)

Where “and” joins values, the source holds several entries; their conditions need not be identical. Equal values may be shown once.

Turning to 阳性对照, in the assay with H7N9病毒的血凝素HA (H7N9病毒) [1], the 450 (absorbance at 450 nm) was 1.15 (2×) and 1.21.

B1: 抗H7N9全人源单克隆抗体7O2 (antibody, V domains shown)
VH: EVQLVESGGGLVQPGGSLRLSCAASGFTFSSYWMHWVRQAPGKGLVWVSRINSDGSSTSYADSVKGRFTISRDNAKNTLYLQMNSLRAEDTAVYYCARRSKTGKFDPWGQGTLVTVSS
VL: SYELTQPPSVSVSPGQTARITCSGDALPKQYAYWYQQKPGQAPVLVIYKDSERPSGIPERFSGSSSGTTVTLTISGVQAEDEADYYCQSADSSGTLEVFGGGTKLTVLV
With B1, the 450 (absorbance at 450 nm) with H7N9病毒的血凝素HA (H7N9病毒) [2] was 3 and 3.12 and 2.96.
